Measured values published in patent US20230203142A1 (published 2023).

Experiments:
Experiment in all cases: MST
[1] = target: T1, recombinant human FABP4 (fatty acid binding protein 4) (UniProt P15090 2-132)
T1 chain: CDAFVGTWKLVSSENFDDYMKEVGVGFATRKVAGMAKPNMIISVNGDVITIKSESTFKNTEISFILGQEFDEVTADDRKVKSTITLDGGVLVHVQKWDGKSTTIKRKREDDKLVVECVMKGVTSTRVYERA

[2] = target: human NDPK-A (nucleoside diphosphate kinase A), full-length recombinant (UniProt P15531 2-152)
[3] = target: human ADK (adenosine kinase), recombinant (UniProt P55263 2-362)
Sequence of human ADK (adenosine kinase), recombinant (P55263 2-362): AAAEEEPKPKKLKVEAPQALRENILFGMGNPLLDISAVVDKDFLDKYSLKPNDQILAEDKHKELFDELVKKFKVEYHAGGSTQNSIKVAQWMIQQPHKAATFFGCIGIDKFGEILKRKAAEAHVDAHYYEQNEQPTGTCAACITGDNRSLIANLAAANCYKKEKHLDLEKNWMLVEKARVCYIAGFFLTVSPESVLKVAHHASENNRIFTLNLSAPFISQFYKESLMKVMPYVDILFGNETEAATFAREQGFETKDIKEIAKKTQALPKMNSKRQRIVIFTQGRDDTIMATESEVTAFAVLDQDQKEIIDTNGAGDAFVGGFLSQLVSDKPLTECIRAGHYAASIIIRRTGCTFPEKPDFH

Sequence of human NDPK-A (nucleoside diphosphate kinase A), full-length recombinant (P15531 other isoform, or with tags, fused parts or gaps): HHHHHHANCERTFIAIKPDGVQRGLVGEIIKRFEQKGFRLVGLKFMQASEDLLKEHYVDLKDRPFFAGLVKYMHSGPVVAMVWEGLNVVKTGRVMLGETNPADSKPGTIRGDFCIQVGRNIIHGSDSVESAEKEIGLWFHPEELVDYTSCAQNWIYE

B1: CA33 (a-Ab) monoclonal antibody (antibody)
heavy: QSVEESGGRLVTPGTPLTLTCTVSGFSLSTYYMSWVRQAPGKGLEWIGIIYPSGSTYCASWAKGRFTISKASTTVDLKITSPTTEDTATYFCARPDNDGTSGYLSGFGLWGQGLVTVSSAKTTPPSVYPLAPGSAAQTNSMVTLGCLVKGYFPEPVTVTWNSGSLSSGVHTFPAVLQSDLYTLSSSVTVPSSTWPSETVTCNVAHPASSTKVDKKIVPRDC
light: DVVMTQTPASVSEPVGGTVTIKCGASEDISRYLVWYQQKPGQPPKRLIYKASTLASGVPSRFKGSGSGTDFTLTISDLECDDAATYYCQCTYGTYAGSFFYSFGGGTEVVVERTDAAPTVSIFPPSSEQLTSGGASVVCFLNNFYPKDINVKWKIDGSERQNGVLNSWTDQDSKDCTYSMSSTLTLTKDEYERHNSYTCEATHKTSTSPIVKSFNRNEC
Q: Which Kd [1] does the source give for B1 here?
A: 2.86 µM

Q: What about the EC50 [2] of the same binder?
A: 0.143 µM

Q: What about the EC50 [3] of the same binder?
A: 1.88 µM
